Test results taken from patent US20080003218A1 (Genentech, published 2008).
Like-named read-outs stand apart in the source and are kept apart here.

Legend:
human IgE [1] = target: T1, human IgE (human, UniProt P01854 1-546); assay: soluble receptor assay, biotin-IgE binding to coated FcεRI α-chain IgG chimera
[2] = target: IgE bound to FcεRI on human peripheral blood basophils (human, UniProt P01854 1-546; P12319 26-257); assay: cell-based or functional assay
human IgE [3] = target: T1, human IgE; assay: soluble receptor assay, biotin-IgE binding to coated FcεRI α-chain IgG chimera; remark: listed apart in the source
[4] = target: membrane IgE on U266B1 cells (human, UniProt P01854 1-546); assay: FACS on membrane IgE+ U266B1 cells
membrane IgE on U266B1 cells, sequence (P01854 whole entry, one chain of several): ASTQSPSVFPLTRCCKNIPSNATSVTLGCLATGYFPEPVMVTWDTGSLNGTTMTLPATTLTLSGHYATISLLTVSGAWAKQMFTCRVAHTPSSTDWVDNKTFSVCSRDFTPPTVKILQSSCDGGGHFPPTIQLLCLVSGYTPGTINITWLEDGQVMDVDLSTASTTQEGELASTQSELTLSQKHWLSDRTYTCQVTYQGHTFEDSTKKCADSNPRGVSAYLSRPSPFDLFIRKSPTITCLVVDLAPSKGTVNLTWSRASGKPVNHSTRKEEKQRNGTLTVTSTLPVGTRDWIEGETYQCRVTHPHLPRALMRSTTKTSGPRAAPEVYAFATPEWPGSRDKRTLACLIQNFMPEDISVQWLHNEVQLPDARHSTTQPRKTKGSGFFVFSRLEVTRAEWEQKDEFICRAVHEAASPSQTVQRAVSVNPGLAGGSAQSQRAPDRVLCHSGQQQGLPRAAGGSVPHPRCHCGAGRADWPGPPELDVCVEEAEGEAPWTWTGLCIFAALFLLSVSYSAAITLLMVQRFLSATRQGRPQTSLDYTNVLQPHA

human IgE [5] = target: T1, human IgE; assay: equilibrium binding (Scatchard), 125I-IgE

T1 sequence (P01854 whole entry): as the sequence (P01854 whole entry, one chain of several) above
IgE bound to FcεRI on human peripheral blood basophils, sequence (P01854 whole entry, chain 1 of 2): as the sequence (P01854 whole entry, one chain of several) above
IgE bound to FcεRI on human peripheral blood basophils, sequence (P12319 26-257, chain 2 of 2): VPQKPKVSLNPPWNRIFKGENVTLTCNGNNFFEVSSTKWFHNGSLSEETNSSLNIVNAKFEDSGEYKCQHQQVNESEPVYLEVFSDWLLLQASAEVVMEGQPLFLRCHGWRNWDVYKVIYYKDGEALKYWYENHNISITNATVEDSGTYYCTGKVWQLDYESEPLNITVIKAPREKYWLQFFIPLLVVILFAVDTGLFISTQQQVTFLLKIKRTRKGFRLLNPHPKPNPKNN

IC50 (human IgE [1]): 0.449 mg/L | ratio Variant X/IgG1-2 (human IgE [1]): 0.06 ratio | ratio Variant X/MaE11 (human IgE [1]): 1 ratio | PBL histamine release (EC50) [2]: > 100 mg/L | IC50 (human IgE [3]): 0.179 mg/L | ratio F(ab)-X/F(ab)-2 (human IgE [3]): 0.03 ratio | ratio F(ab)-X/MaE11 (human IgE [3]): 1 ratio | EC50 [4]: 0.15 mg/L | Kd (human IgE [5]): 0.03 µM
B1: murine anti-human IgE monoclonal antibody MaE11 (antibody, V domains shown)
VH: DVQLQESGPGLVKPSQSLSLACSVTGYSITSGYSWNWIRQFPGNKLEWMGSITYDGSSNYNPSLKNRISVTRDTSQNQFFLKLNSATAEDTATYYCARGSHYFGHWHFAVWGAGTTVTVSS
VL: DIQLTQSPASLAVSLGQRATISCKASQSVDYDGDSYMNWYQQKPGQPPILLIYAASYLGSEIPARFSGSGSGTDFTLNIHPVEEEDAATFYCQQSHEDPYTFGAGTKLEIK
notes: Murine IgG1; immunogen U266 IgE; also called murine mAb MaE11
